US20130071357A1, “IDENTIFICATION, PROLIFERATION IN SITU, HARVESTING, SEPARATION, AND TRANSPLANTATION OF ADULT-DERIVED REGENERATIVE PLURIPOTENT TRANSITIONAL BLASTOMERE-LIKE STEM CELLS AND METHODS OF TREATMENT THEREOF” (HEYGEN, LLC, priority 2011, published 2013)

Columns and labels:
[1] = system: adult pluripotent epiblast-like stem cells; assay: induction of epiblast-like stem cells in culture; assay type: cell-based, rat; settings: ELSCs
[2] = system: adult totipotent blastomeric-like stem cells; assay: induction of blastomeric-like stem cells in culture; assay type: cell-based, rat; settings: BLSCs
Text: 1961; Rohme 1981; Young and Black, 2005a].
FIG. 7. Blastomeric-like stem cells (BLSCs) harvested from male Sprague-Dawley out bred rat 0001 and propagated from a single cell derived by serial dilution clonogenic analysis, then genomically labeled with LacZ to synthesize the beta-galactosidase gene product. Clone designated as Scl-44beta. […] B-L is phase contrast microscopy to show unstained cells in field of view. […] Original magnification 200×.
FIG. 8. Blastomeric-like stem cells (BLSCs) harvested from male Sprague-Dawley out bred rat 0001 and propagated from a single cell derived by serial dilution clonogenic analysis, then genomically labeled with LacZ to synthesize the beta-galactosidase gene product. Clone designated as Scl-44beta.

B1: brain-derived neurotrophic factor: lineage-induction agent (protein, UniProt P23560 19-247, looked up)
Neurotrophic factor BDNF …: APMKEANIRGQGGLAYPGVRTHGTLESVNGPKAGSRGLTSLADTFEHVIEELLDEDQKVRPNEENNKDADLYTSRVMLSSQVPLEPPLLFLLEEYKNYLDAANMSMRVRRHSDPARRGELSVCDSISEWVTAADKKTAVDMSGGTVTVLEKVPVSKGQLKQYFYETKCNPMGYTKEGCRGIDKRHWNSQCRTTQSYVRALTMDSKKRIGWRFIRIDTSCVCTLTIKRGR
response to lineage-induction agent [1]: forming cells belonging to the ectodermal lineage
response to lineage-induction agent [2]: forming cells belonging to the ectodermal lineage
